From a protein production outcome set (Wang et al. 2014) come the findings set out here.

This series can be described thus: label from the status in PepcDB records.

Consider “MGHIKKGELTQEEKELLEVIGKGTVQEAGRLLSSKNVHVNCLDENGMTPLMHAAYKGKLEMCKLLLRHGADASCHQHEHGYTALMFAALSGNKDITWVMLEAGAETDVVNSVGRTAAQMAAFVGQHDCVAIINNFFPRERLDYYTKPQGLDKEPKQPPKLAGPLHKIITTTNLHPVKIVMLVSENPLLADAAALGKCYRVMDLICEKCMKQRDMNEVLAMKMHYISCIFQKCITFLKEGENKLDTLIRSLLKGRASDGFPVYQEKIIRESIRKFPYCEATLLQQLVRSIAPVEIGSDPTAFSVLTQAITGQVGFVDVEFCTTCGEKGASKRCSVCKMVIYCDQTCQKTHWFAHKKMCKSLKDVYEKQQIEAAKHKRQEEKNGNPNVSSNHVNEDQPEAEEGITQENSIPSDSVEGEKEAANDTGLASAQDAPTGPQLSEE”, for which the protein production entry is “failed”.
Turning to “MGHKQSVDSRGKGRKVPGSSSMVQKHRVESSGGAIISGPSLFDNLPEDCISNIISFTSPRDACVAASVSKTFESAVNSDSVWDKFLPSDYSSLVPPSRVFSSKKELYFAICDNPVLVEDGGKSFWLEKENGKKCFMLSPKKSMWITWVSTPQYWRWISIPEARFEEVPELLNVCWFEVRGGMNTKELSPGTRYSAYIVFKTKNGCPNLGDVPVEATVGLVGQESSQRHIYFVGPSDQRRDRETRDVTRPTKRKDGWMEAELGQFFNESGCDVVDTSILEIKTPYWKRGLIIQGIEFRPTKSLFYI”, the protein production result is reported as “not failed”.
Regarding “MGHPPQLPGGRCPMSQTMDFDTLRRAMADNYEQPEGPARNARAEQLLTEAEKLNIPLAVIEALGHQLKVYNYSSEKDKMFVPFARLLRMWDERPEDFDEYEIHSLHWVFKWMSAGMLGQPHIPLASIEKWLGEMEHRYRLAGHSERAVRSAEFSVANHIGDLARAERAYAAWLAADRDSMADCHACELHDQGWWQARKGADADALEVWRPVVEGEYVCAHEPHAILASSLVPLLRLGRLDEARAHHLRGFRLIRPMESMRGAYADHVEFCALSGNEARALELLAERPAYFTDSGEPRSKLDFMAVVALLMDRLVELGLGEQTVPGPAGRVWSARELAAHARAEALALAARFDERNGTAHVSERARERMDRRPLVDRLPLGVRSTRPAPTAPRPPAAPDSAPAPAVERDLRDVLAEARGRSDALRPDAMDAWAAVARAAGDHELDARDRAEIADHEAMSRGPEGAPLFERAAELYAEAGDPGEALAARARGAYVRALTGHSDDALRTINDLHRQVRALFAKDGTGVRQTAAVLVGRARILVHRVHETEGAGTTVAAAEEAVRELLEFAEPHIAQVRLASRAAEARAMLGELAALTGDAMTAAELLAQAAEGFLAAGLPWFAVEYEARLAGIARELGDAVEAERAARSALEHGVEYLEPAGQAQLHLQLAEVLGTTGQFGPAAEHALEAAHWADEAGEGPTFGAWARHQLGGFLLQQGRWAEAAEVLESALPDLTAETHGDGALVQTQWWLGDCHTELGEHREAAERWLRAAEIARHWPEQRDHAMLAHLAAEALGHAGLPAEADRAYTRAGDLWRDLGNVHGLARALRARAWLAAREEDELDPARELMAQAVRECEAALEGATEGEDGARERLVAELGHTHRQFGDLVARSVQDGDRGADFQGAFEEALGHVTRAVAVFAPLGASALDLRTGAELAAGWLEADLHRPAEATARARAVLAAYANRQEADDETARARCAEADRMLELLGTRTGQ”, the protein production result was “failed”.
Consider “MGHVLIEMMGIKKGDFVLDVGCGTGRQALNVAGIIGPAGKLTGIDPSSYRIELARKKFEGDSSGNVRFLVRQAENLQDIPDNSINHAYFCSSFHWVDDKKTALNEIFRVLRPGGKVGMTTLDRNSPNTMKALIDPILAKFGIERRHEWHRGMKKVTAPELHDLLSGAGFTSISIEPRAVPRKYNSPEEFLQHPEEKDSSRGILRDISNETLEKLRQEITEEFRKAQTPEDIGFGNITLFAIATKAQEGLEHHHHHH”, for which the protein production entry is recorded as “not failed”.
Consider “MGIGFKGRKTLLRELVKYMVTLCISLVVLALLYIFINTIAMNTGFSHPANYNEREAEKLAPKLETIDKVTADMIPDTMSYAILNKETKQKTAGTIKEKDLQLVKKKIEKKPYVNYKQKGYLVIERNNEYCVLQYSLRADFSSPLLRKYLPNYELTSICILIILLIIVISIITTYFANRLRKHFETLNVITRYIKEQNLQFTPEFTHIKEFDDVIDSLIEMRDALQSSLEALWRLEKNKKEQIGALAHEIKIPITIIKGNAELLSLSMQNEEQAEYTKYILGAGNQIEQYIYQLIHLSKTEDALTIHLEKASVDELTETLVKDISAYKGNKNINISFKKENLMKEAKIDWQLLHRALLNILTNAVDYTPEGGTVSVHAESILRYFIFL”, for which the protein production result was “failed”.
As for “MGIQETDPLTQLSLPPGFRFYPTDEELMVQYLCRKAAGYDFSLQLIAEIDLYKFDPWVLPNKALFGEKEWYFFSPRDRKYPNGSRPNRVAGSGYWKATGTDKIISTEGQRVGIKKALVFYIGKAPKGTKTNWIMHEYRLIEPSRRNGSTKLDDWVLCRIYKKQSSAQKQVYDNGIANAREFSNNGTSSTTSSSSHFEDVLDSFHQEIDNRNFQFSNPNRISSLRPDLTEQKTGFHGLADTSNFDWASFAGNVEHNNSVPELGMSHVVPNLEYNCGYLKTEEEVESSHGFNNSGELAQKGYGVDSFGYSGQVGGFGFM”, the protein production result is reported as “failed”.
The result for “MGIYQWRDKKKPSGGKRRYYYKVKRKYAAGRPPTYTTLSAAEEEERKPVRARGGSYKIKAKKVAFAVVSNPKTGEARKARILRIVETPAHREYARRGIIVKGAVIDTTLGRAVVTSRPGQEGVVNAVLLEEQGQKQLEHHHHHH” reads “not failed”.
With “MGKEAVTGKVRKLTVQLDHQTGDLKGCSRRGPTPRSRAPGAKLSAPEAGPPRRGPLPRGGAGRDTLLGAKATPSSPAARRYVTALGPPQPRGSTDSACAALPQPVPHEPREAAFRLAPASERGASVSPARIPRRRRRVPAMWDPRAARTPPRELAMLLCNKSNAFYNLGKWNEAFLAAKECLQWDPTYVKGYYRAGYSLLHLLQPYEAARMFFEGLRLLQRSPDQLQVPDFLVGIFTTMSSDSIVLQSFLPCFDHIFTTGFSTEVWQYVIQKLAKKGLWHQSFLLLSAKKDRLPSNIHVSELSLQSLFEKYVFIGFYEKLEQVPKLVQWLVSIGANIETIGPNPLHALMRLCIQARESQLFRWVMDQKPEWKEHINHRDDAGCTVLHVAAAHFPGYTSRRQTEDVQMLLSFGADPTLLDGHARTVVDVLKRNKNFRAIDKINSHLEKLASSSKGLSALQEAFISKQ”, the protein production entry was “failed”.
With “MGKIHELSSVLADQIAAGEVVERPASVVKELVENAVDAHATQVDILVQESGVQSIRVIDDGDGIDDAEVLTAFKRHATSKITSREDLFRVHSLGFRGEALPSIASVADVVMNTSTGATGTSIHYRGGKLLQQSPAPLRQGTDITVTDLFFNTPARLKYLKSPQTELANILDVVNRIALSYPAVAFRLVHNAKELLKTAGRGDLQQVIAGIYGVQNARKMVAIQGSTTDFKLSGFVALPELTRASRQYITVLINGRAIKNQQLTKAVIKGYGSKLMVGRYPIAVIALTMDPLLVDVNVHPTKQEVRLSKEPELAKLVSTTITDRLVDVNLIPSALTNLGSHRREHLNTDQLAMDLNAVSSQYQVADKTTPASTEQFAASLAAATMQPSSATTMVSTTSAQPSAVNRAAVSAVVPSESAASSANQPIMISHRDELTATPVQAFDQRYQSESGALPFGETAEPLETSTAASAPTSEAPDTERFPQLRYLGQMHGTYLLAEADDGMYILDQHAAQERINYEYYRQAIGEVSADQQNLLVPIILDYPTSDVLKIKEKLPLLAELGIHLESFGGNSFIVHAHPTWFKAGQEEDTIREMIDWLLQDDKLTVAQFREKSAIMMSCKRAIKANHHLDDQQARALLAKLPTCENPFNCPHGRPVTVHFTNSDMERMFKRIQDSHEARD”, the protein production result is “failed”.
With “MGKIQELSEQLANQIAAGEVVERPASVVKELVENALDAGSTQIDIFIEEAGLKTIQIIDNGEGIAKEDVLNAFKRHATSKIHTRDDLFRIRSLGFRGEALPSIASVSEMIVETATAEEEEGSYVILKGGKVEENRPAALRKGTKMTVSNLFYNTPARLKYVKTIQTELANIGDIVNRLALSHPKVAFRLVHDGHKMMSTTGNGDLKQTIAGIYGISTAKKMLKIEGKDLDFTLTGYVSLPEVTRASRNYLSTIINGRYIKNFALNKAIVAGYGSKLMVGRFPIAVLEIEMDPLLVDVNVHPTKQEVRLSKEKDLMALIEQAIQEVLSQEQLIPNAADNLRFKKKLPPEPKAEQMEIPLSTEQPAVKQRPGSLSYNPATGRFYAEHATDETPASSAPEAVNQTERAVDPMDDPFAPPVPESTSVAEETSAYETSSAAADSANHWETASNEQQVIAEETKITEVPDSEPSLRSSEAADEVFQEEMKLHPEFDANSAASQRELKQALNKLEEERPTERFPELEYFGQMHGTYLFAQSKDGLFIIDQHAAQERIKYEYFREKIGEVSDDLQELLVPIVIDYPNSDALKIKEQKETLAEVGIHLEDFGQNSFIVRAHPTWYPAGEEESIVREMIDMLLTTGSVSVKKFREATAIMMSCKRSIKANHYLNEQQARVLLKDLALCENPFNCPHGRPVLIHFTNSDMERMFKRIQDPH”, the protein production entry was “failed”.
In the case of “MGKKYSMRRRIWQAVIEIIIGTCLLILLLLGLTFFLRQIGQISGSETIRLSLDSDNLTISDIERDMKHYPYDYIIFDNDTSKILGGHYVKSDVPSFVASKQSSHNITEGEITYTYSSNKHFSVVLRQNSMPEFTNHTLRSISYNQFTYLFFFLGEIILIIFSVYHLIREFSKNFQAVQKIALKMGEITTFPEQEESKIIEFDQVLNNLYSKSKELAFLIEAERHEKHDLSFQVAALSHDVKTPLTVLKGNIELLEMTEVNEQQADFIESMKNSLTVFDKYFNTMISYTKLLNDENDYKATISLEDFLIDLSVELEELSTTYQVDYQLVKKTDLTTFYGNTLALSRALINIFVNACQYAKEGEKIVSLSIYDDEKYLYFEIWNNGHPFSEQAKKNAGKLFFTEDTGRSGKHYGIGLSFAQGVALKHQGNLILSNPQKGGAEVILKIKK”, the protein production result is given as “failed”.
Consider “MGKTPEEVDEVNKAAFSTSEASATIAAMNQLHKPVDTVVAHISPEAPAAKVMAEGDVITQVAGAKATGPSQVRDAVRAKKPGETISIGFLRDGKQLTREVTLGTHPEDDKVAFLGVSMTARPLEHHHHHH”, for which the protein production entry was “not failed”.
Turning to “MGKVQPVYWRQLRDIEMENNFLLDVRTPDEFSLNTLPGAVNIPLDELRDRLDELPKDKMIYTFCAVGLRGYLAYRILVQHGFEKVRNLSGGLKTYHAAAAPIILREESENEVPLEHHHHHH”, the protein production result is “not failed”.
As for “MGLFDEVVGAFLKGDAGKYQAILSWVEEQGGIQVLLEKLQSGGLGAILSTWLSNQQRNQSVSGEQLESALGTNAVSDLGQKLGVDTSTASSLLAEQLPKIIDALSPQGEVSAQANNDLLSAGMELLKGKLFR”, the protein production entry is “not failed”.
Take “MGLFSKRQIGNQYETLAKQYLQRQGLRFLDQNYLTKFGEIDLIFQQDETIVFVEVKYRKNDHFGSAAEMVTNAKMRKLIKTAQVWLSQQRTMNTIDYRFDVIAIHDSGRDINWIQNAISEG”: the protein production result was “failed”.
Take “MGLGRYLPYLLSAALLLLCGCERTDTHAQPAKENGEIKVAPYGSWQSPLSAADVFKQTDDIAELQSVGNAIYFAESSGRDQGKVGIKRLDGLGKVTQVVLPDFNVKSTVHEYGGAAFLGIGKSLFATKMQDQLFYRFAPNQPPLPLTPNGTRHADCVAYPKGSRIICVREDHRQGGEPKASLVTINLNFAGEGDTFVSGHDFISSPTISPDNTQLAWITWEHPYMPWDNSVLWLGELDRKGQLKNVRKVSTPEASSVAQPLFGPDGKLYVVSDISNWWNIYRVTPSYTLEPVLSKNAEFAVPDWRLGNHNYAFENATTLIASYVEGNRAALLRIHLDSELTESLAIDFAEITQVVKGEDGVYFVGAKATPEKGIYRVVGRGTELVYAPALANLNPNYVSRAINIAFATGKDQQAYGYFYGPVNPKYVPPHDTRPPLIVMLHGGPTSRASLAYRSEIQFWTSRGFAVLDLNFRGSSGFGRAYRQSLYGKWGESDVEDAVNAAKYLVAKGWVDANKLAIRGISAGGLTVMSSLAFYNVFQAGVSYEGISDVEQLAKSTHKFESGYLDQLIGPYPENTDRYRELSPLNHLDGLNEPLLIFQSLRNKIVPTSQSRQIYDALKAKGVPTAYIDYGDDSDEGRTPEHKAAGLETELAFYGQVFKFTPAGKLPPLILDNISALTP”: the protein production entry is given as “failed”.
